B1: Protein E6 (Human papillomavirus type 16), P03126 (parent)
chain: MHQKRTAMFQDPQERPRKLPQLCTELQTTIHDIILECVYCKQQLLRREVYDFAFRDLCIVYRDGNPYAVCDKCLKFYSKISEYRHYCYSLYGTTLEQQYNKPLCDLLIRCINCQKPLCPEEKQRHLDKKQRFHNIRGRWTGRCMSCCRSSRTRRETQL
B2: Protein E6 (Bovine papillomavirus type 1), P06931 (parent)
chain: MDLKPFARTNPFSGLDCLWCREPLTEVDAFRCMVKDFHVVIREGCRYGACTICLENCLATERRLWQGVPVTGEEAELLHGKTLDRLCIRCCYCGGKLTKNEKHRHVLFNEPFCKTRANIIRGRCYDCCRHGSRSKYP

Tests used:
[1] = variants of: B1; conditions: with ube3a_human UBE3A
[2] = variants of: B1; conditions: with ube3a_human UBE3A; remark: listed apart in the source
paxi_human PXN, P49023 [3] = variants of: B2; conditions: with paxi_human PXN
paxi_human PXN, P49023 [4] = variants of: B2; conditions: with paxi_human PXN; remark: listed apart in the source

Chain of paxi_human PXN, P49023 (P49023 whole entry): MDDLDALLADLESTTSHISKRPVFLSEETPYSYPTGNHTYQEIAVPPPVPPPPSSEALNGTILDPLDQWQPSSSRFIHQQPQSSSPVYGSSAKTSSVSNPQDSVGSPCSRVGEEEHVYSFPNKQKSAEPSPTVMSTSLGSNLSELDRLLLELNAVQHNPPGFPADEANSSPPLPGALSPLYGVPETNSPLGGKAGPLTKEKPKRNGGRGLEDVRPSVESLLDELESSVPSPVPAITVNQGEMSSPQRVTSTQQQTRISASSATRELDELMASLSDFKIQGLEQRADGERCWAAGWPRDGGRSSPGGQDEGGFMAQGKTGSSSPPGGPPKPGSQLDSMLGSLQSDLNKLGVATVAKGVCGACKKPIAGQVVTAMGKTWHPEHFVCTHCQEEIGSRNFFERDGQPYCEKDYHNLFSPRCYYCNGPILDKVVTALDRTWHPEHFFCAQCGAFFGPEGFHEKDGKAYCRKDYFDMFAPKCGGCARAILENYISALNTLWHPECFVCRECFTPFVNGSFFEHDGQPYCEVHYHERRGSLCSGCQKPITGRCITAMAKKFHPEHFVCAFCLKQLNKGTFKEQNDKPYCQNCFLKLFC

Variant: R109A
- effect of a mutation on the interaction [1]: disrupting interaction strength
- effect of a mutation on the interaction [2]: decreasing interaction strength

Variant: L57E
- effect of a mutation on the interaction [2]: disrupting interaction strength

Variant: L57A
- effect of a mutation on the interaction [1]: disrupting interaction strength

Variant: S78R
- effect of a mutation on the interaction [1]: decreasing interaction strength

Variant: R17A
- effect of a mutation on the interaction [1]: decreasing interaction strength

Variant: R62A
- effect of a mutation on the interaction [1]: decreasing interaction strength

Variant: R138A
- effect of a mutation on the interaction [1]: disrupting interaction strength
- effect of a mutation on the interaction [2]: decreasing interaction strength

Variant: R116D
- effect of a mutation on the interaction (paxi_human PXN, P49023 [3]): decreasing interaction strength
- effect of a mutation on the interaction (paxi_human PXN, P49023 [4]): disrupting interaction strength

Variant: R116G
- effect of a mutation on the interaction (paxi_human PXN, P49023 [3]): decreasing interaction strength
- effect of a mutation on the interaction (paxi_human PXN, P49023 [4]): disrupting interaction strength

Variant: R89L
- effect of a mutation on the interaction (paxi_human PXN, P49023 [3]): decreasing interaction strength
- effect of a mutation on the interaction (paxi_human PXN, P49023 [4]): disrupting interaction strength

Variant: R89A
- effect of a mutation on the interaction (paxi_human PXN, P49023 [3]): decreasing interaction strength
- effect of a mutation on the interaction (paxi_human PXN, P49023 [4]): disrupting interaction strength

Variant: L58S
- effect of a mutation on the interaction (paxi_human PXN, P49023 [3]): decreasing interaction strength
- effect of a mutation on the interaction (paxi_human PXN, P49023 [4]): disrupting interaction strength

Variant: F37S
- effect of a mutation on the interaction (paxi_human PXN, P49023 [3]): decreasing interaction strength
- effect of a mutation on the interaction (paxi_human PXN, P49023 [4]): disrupting interaction strength

Variant: R121G
- effect of a mutation on the interaction (paxi_human PXN, P49023 [3]): decreasing interaction strength
- effect of a mutation on the interaction (paxi_human PXN, P49023 [4]): disrupting interaction strength
